These are literature values, as cited in paper PMC3651761.

Usually Kd stands for the concentration at which binding is half-saturated.

For one data set, the target named is IGF-IR (Homo sapiens) (UniProt P08069).
The target in data set [1] is Met receptor (Homo sapiens) (UniProt P08581).
Chain of UniProt P08581 (P08581 25-932): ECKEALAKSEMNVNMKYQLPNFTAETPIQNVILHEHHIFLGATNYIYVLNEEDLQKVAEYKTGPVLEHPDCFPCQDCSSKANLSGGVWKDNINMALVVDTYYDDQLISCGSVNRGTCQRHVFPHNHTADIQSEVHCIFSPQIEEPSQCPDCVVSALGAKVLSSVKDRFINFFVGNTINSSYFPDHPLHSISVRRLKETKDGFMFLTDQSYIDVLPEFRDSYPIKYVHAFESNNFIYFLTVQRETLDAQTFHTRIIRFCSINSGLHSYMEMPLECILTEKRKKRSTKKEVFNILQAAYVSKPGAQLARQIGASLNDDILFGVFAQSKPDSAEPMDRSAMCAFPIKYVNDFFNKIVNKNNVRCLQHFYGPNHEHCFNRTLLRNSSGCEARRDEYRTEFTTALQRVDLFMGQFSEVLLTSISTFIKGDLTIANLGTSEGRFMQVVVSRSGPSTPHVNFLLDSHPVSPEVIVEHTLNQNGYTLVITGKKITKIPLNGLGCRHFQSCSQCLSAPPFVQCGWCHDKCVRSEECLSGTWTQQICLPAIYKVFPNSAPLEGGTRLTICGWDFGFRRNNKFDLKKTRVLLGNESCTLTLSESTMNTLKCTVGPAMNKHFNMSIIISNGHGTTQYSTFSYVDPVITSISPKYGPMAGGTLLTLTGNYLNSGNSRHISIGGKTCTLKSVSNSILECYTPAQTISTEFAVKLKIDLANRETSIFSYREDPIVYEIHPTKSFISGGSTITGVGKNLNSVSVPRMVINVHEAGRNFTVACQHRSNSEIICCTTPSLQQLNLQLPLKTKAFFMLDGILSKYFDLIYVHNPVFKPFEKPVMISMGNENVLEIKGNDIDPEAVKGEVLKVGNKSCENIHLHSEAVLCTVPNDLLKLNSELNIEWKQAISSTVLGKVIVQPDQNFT

Chain of UniProt P08069 (P08069 31-736, chain 1 of 2): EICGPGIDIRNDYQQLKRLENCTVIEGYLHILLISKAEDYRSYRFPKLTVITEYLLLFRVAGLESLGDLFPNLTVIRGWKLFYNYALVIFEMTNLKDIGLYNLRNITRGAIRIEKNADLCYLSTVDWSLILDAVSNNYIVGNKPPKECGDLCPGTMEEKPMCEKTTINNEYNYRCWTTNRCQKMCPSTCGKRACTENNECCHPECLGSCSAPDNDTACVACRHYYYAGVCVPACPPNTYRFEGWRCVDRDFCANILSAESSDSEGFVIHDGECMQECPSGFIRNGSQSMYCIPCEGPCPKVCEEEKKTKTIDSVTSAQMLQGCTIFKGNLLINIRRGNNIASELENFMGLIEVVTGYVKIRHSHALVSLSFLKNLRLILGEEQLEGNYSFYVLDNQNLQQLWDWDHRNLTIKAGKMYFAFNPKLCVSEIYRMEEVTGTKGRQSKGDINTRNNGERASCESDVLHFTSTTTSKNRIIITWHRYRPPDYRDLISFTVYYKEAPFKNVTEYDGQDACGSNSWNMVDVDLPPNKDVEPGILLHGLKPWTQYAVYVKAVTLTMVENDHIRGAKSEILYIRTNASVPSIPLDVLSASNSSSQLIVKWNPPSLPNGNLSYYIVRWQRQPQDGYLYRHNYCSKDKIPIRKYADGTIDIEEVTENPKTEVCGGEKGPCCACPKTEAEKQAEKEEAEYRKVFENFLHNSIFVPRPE
Chain of UniProt P08069 (P08069 741-935, chain 2 of 2): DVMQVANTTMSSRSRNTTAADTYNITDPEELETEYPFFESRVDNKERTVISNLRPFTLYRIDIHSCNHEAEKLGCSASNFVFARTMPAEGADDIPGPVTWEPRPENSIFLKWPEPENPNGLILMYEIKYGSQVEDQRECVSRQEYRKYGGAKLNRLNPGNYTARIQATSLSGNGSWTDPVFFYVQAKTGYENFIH

For the substance Decorin (from UniProt P07585), the figures for the Kd (with IGF-IR (Homo sapiens); in data set [1]) were 18 nM and 2 nM, respectively.
